Assay results reported in patent US12459996B2, “Methods for treating alcohol-induced brain injury and reducing alcohol addiction” (The Regents of the University of California, priority 2017, dated 2025).

Tested on: cultured GFAP+F4/80- astrocytes
Assay: IL-1β stimulation of cultured astrocytes, gene expression microarray
Format: cell-based, mouse
Conditions: 5 ng/ml, 24 h
Procedure: Whole mouse genome gene expression via Microarray: Primary astrocytes (5×10^5) were stimulated with IL-1β (5 ng/ml), TGF-β1(5 ng/ml) or vehicle for 24 h, harvested, and mRNA was purified using RNAeasy™ columns (Qiagen); and 160 ng of purified RNA per sample was labeled using the LRILAK PLUS™, 2-color, low RNA input Linear Amplification kit and hybridized to a Whole Mouse Genome Microarray 4×44 K™ 60mer slide according to the manufacturer's instructions (Agilent, Santa Clara, CA). Slides were scanned using the Agilent GZ505B Scanner™ and analyzed using the Gene Spring Software™ (Agilent).
To determine the effect of microglia-derived cytokines on astrogliosis 21,22, cultured GFAP^+F4/80-astrocytes were in vitro stimulated with TGF-β1 or IL-β. […] In addition, cultured astrocytes expressed glutamate receptors (mGluRs) that mediate neuron-astrocyte signaling (FIG. 14D). Under pathological conditions, neurodegeneration triggers expansion of reactive astrocytes, upregulation of TGF-β 1, and mGuRs, which together generate neuroprotective effects^24.
FIG. 14A: Primary GFAP^+F4/80^− astrocytes and GFAP^−F4/80^+ microglial cells were isolated from Wt mice, and phenotyped by immunocytochemistry. Cell purity was calculated as percent of total cells (representative images ×20 objective). […] The data are average of (triplicates). FIG. 14B-C: Cultured astrocytes (5×10^5 cells per ml) were stimulated with TGF-β1 (5 ng/ml), or IL-1β (5 ng/ml), or PBS, and subjected to the customized gene expression microarray (Agilent. FIG. 14B: GO enrichment profile for IL-1β- and FIG. 14C: TGF-β- (vs PBS-) stimulated astrocytes is shown.

## IL-β1: IL-1β cytokine (5 ng/ml) used to stimulate cultured astrocytes
  CCL2, fold induction vs vehicle: 200 fold
  CCL5, fold induction vs vehicle: 13 fold
  CCL7, fold induction vs vehicle: 400 fold
  Cxcl1, fold induction vs vehicle: 14 fold
  IL-6, fold induction vs vehicle: 20 fold
